Data: publication PMC9462685 (Science Advances, 2022)

Molecular target: the molecule itself
Assay: SEC

Protein	binding result
Sr35^R157A (receptor) MEIAMGAIGSLLPKLGELLIGEITLEKKVRKGIESLITELKLMQAVLSKVSKVPADQLDEGVKIWAGNVKELSYQMEDIVDAFMVRVGDGGESTNPKNRVKKILKKVKKLFKNGKDLHRISAALEEVVLQAKQLAELRQRYEQEMRDTSANTSVDPAMMALYTDVTELVGIEETRDKLINMLTEGDDWSKHPLKTISIVGFGGLGKTTLAKAAYDKIKVQFDCGAFVSVSRNPEMKKVLKDILYGLDKVKYENIHNAARDEKYLIDDIIEFLNDKRYLIVIDDIWNEKAWELIKCAFSKKSPGSRLITTTRNVSVSEACCSSEDDIYRMEPLSNDVSRTLFCKRIFSQEEGCPQELLKVSEEILKKCGGVPLAIITIASLLANKGHIKAKDEWYALLSSIGHGLTKNRSLEQMKKILLFSYYDLPSYLKPCLLYLSIFPEDREIRRARLIWRWISEGFVYSEKQDISLYELGDSYFNELVNRSMIQPIGIDDEGKVKACRVHDMVLDLICSLSSEENFVTILDDPRRKMPNSESKVRRLSIQNSKIDVDTTRMEHMRSVTVFSDNVVGKVLDISRFKVLRVLDLEGCHVSDVGYVGNLLHLRYLGLKGTHVKDLPMEIGKLQFLLTLDLRGTKIEVLPWSVVQLRRLMCLYVDYGMKLPSGIGNLTFLEVLDDLGLSDVDLDFVKELGRLTKLRVLRLDFHGFDQSMGKALEESISNMYKLDSLDVFVNRGLINCLSEHWVPPPRLCRLAFPSKRSWFKTLPSWINPSSLPLLSYLDITLFEVRSEDIQLLGTLPALVYLEIWNYSVFEEAHEVEAPVLSSGAALFPCATECRFIGIGAVPSMFPQGAAPRLKRLWFTFPAKWISSENIGLGMRHLPSLQRVVVDVISEGASREEADEAEAALRAAAEDHPNRPILDIW	binds
Sr35^Δ20 (domain or fragment) GEITLEKKVRKGIESLITELKLMQAVLSKVSKVPADQLDEGVKIWAGNVKELSYQMEDIVDAFMVRVGDGGESTNPKNRVKKILKKVKKLFKNGKDLHRISAALEEVVLQAKQLAELRQRYEQEMRDTSANTSVDPRMMALYTDVTELVGIEETRDKLINMLTEGDDWSKHPLKTISIVGFGGLGKTTLAKAAYDKIKVQFDCGAFVSVSRNPEMKKVLKDILYGLDKVKYENIHNAARDEKYLIDDIIEFLNDKRYLIVIDDIWNEKAWELIKCAFSKKSPGSRLITTTRNVSVSEACCSSEDDIYRMEPLSNDVSRTLFCKRIFSQEEGCPQELLKVSEEILKKCGGVPLAIITIASLLANKGHIKAKDEWYALLSSIGHGLTKNRSLEQMKKILLFSYYDLPSYLKPCLLYLSIFPEDREIRRARLIWRWISEGFVYSEKQDISLYELGDSYFNELVNRSMIQPIGIDDEGKVKACRVHDMVLDLICSLSSEENFVTILDDPRRKMPNSESKVRRLSIQNSKIDVDTTRMEHMRSVTVFSDNVVGKVLDISRFKVLRVLDLEGCHVSDVGYVGNLLHLRYLGLKGTHVKDLPMEIGKLQFLLTLDLRGTKIEVLPWSVVQLRRLMCLYVDYGMKLPSGIGNLTFLEVLDDLGLSDVDLDFVKELGRLTKLRVLRLDFHGFDQSMGKALEESISNMYKLDSLDVFVNRGLINCLSEHWVPPPRLCRLAFPSKRSWFKTLPSWINPSSLPLLSYLDITLFEVRSEDIQLLGTLPALVYLEIWNYSVFEEAHEVEAPVLSSGAALFPCATECRFIGIGAVPSMFPQGAAPRLKRLWFTFPAKWISSENIGLGMRHLPSLQRVVVDVISEGASREEADEAEAALRAAAEDHPNRPILDIW	binds
